Results from US20210380702A1 (Regeneron, published 2021).
Where “and” joins values, the source holds several entries; their conditions need not be identical. Equal values may be shown once.

B1: H1H9364P2 (antibody, human IgG1, V domains shown)
VH: EVQLVESGGGLVQPGRSLRLSCAASGFTFDDYALHWVRQAPGKGLEWVSGISWTGGTIDYADSVKGRFTISRDNAKNSLYLQMSSLRTEDTAIYYCTRDIRGNWKYGGWFDPWGQGTLVTVSS
VL: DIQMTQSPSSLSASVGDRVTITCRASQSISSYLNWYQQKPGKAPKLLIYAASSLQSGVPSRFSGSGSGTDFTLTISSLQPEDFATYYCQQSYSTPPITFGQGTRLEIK
B2: H1H9354P2 (antibody, human IgG1, V domains shown)
VH: EVQLVESGGGLVQPGGSLRLSCEASGFTVGVNHMNWVRQAPGKGLEWVSVIFSSGRTFYGDYVKGRLTIFRQTSQNTVYLQMNSLRSEDTAIYYCARGIGGLDIWGRGTMVTVSS
VL: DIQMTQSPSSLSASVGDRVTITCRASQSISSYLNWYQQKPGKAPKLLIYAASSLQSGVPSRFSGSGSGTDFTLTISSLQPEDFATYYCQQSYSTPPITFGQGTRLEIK
B3: H1H9387P2 (antibody, human IgG1, V domains shown)
VH: QVQLVQSGAEVKKPGSSVKVSCKASGGTFNTYVLSWVRQAPGQGLEWMGEIIPILGAANYAQNFQGRVTFTTDESTNTAYMDLSSLRSEDTAVYYCARDRTSGGFDPWGQGTLVTVSS
VL: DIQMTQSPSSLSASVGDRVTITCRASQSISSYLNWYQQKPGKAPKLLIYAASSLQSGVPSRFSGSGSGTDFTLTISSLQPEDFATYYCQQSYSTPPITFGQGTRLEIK
B4: H1H9382P2 (antibody, human IgG1, V domains shown)
VH: EVQLVESGGGLVQPGGSLRLSCAASGFTVGTNFMNWVRQAPGKGLEWVSAIYSGGTANYADSVKGRFTISRDTSRNTLYLQMNSLRTEDTAVYYCARGGGMDVWGQGTTVTVSS
VL: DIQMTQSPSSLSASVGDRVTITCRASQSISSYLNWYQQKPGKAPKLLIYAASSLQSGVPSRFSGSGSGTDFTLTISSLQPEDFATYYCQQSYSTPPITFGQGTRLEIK
B5: H1H9345P2 (antibody, human IgG1, V domains shown)
VH: EVQLVESGGGLVQPGGSLRLSCAASGFTISTNYMNWVRQAPGKGLEWVAVIYSSGSTYYIDSVKGRFTISRLTSKNTVYLQMSSLNSEDTAVYYCARGIRGFDIWGQGTMVTVSS
VL: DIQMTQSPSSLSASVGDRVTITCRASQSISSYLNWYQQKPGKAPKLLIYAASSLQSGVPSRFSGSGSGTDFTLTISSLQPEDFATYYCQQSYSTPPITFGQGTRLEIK
B6: H1H9396P2 (antibody, human IgG1, V domains shown)
VH: QVQLVQSGAEVEKPGASVKVSCKASGYIFTHYGISWVRQAPGQGLEWVGWISPYNGYTDYAQKLQGRVTLTTDTSTTTAYMELRNLRSDDTAMYYCSRGRGPYWSFDLWGRGTLVTVSS
VL: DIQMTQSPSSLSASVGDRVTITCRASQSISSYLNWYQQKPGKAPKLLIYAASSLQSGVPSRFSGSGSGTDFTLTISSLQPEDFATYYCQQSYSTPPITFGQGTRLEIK
B7: H1H8314N (antibody, V domains shown)
VH: EVQLVESGGGVVRPGGSLRLSCAASGFTFDDYGMTWVRQAPGRGLEWVSGIHWHGKRTGYADSVKGRFTISRDNAKKSLYLQMNSLKGEDTALYHCVRGGMSTGDWFDPWGQGTLVIVSS
VL: DIQMTQSPSSLSASLGDRVTITCRASQSINSYLNWYQQKPGKAPKLLIYVASSLQSGVPSRFSGSGSGTEFTLTISNLQPEDFATYYCQQSYSTPPITFGQGTRLEIK
notes: human IgG1 Fc form (H1H prefix) of numerical identifier 8314
B8: H1H8323N (antibody, V domains shown)
VH: QVQLVQSGAEVKMPGSSVRVSCKASGGIFSSSTISWVRQAPGQGLEWMGEIIPVFGTVNYAQKFQDRVIFTADESTTTAYMELSSLKSGDTAVYFCARNWGLGSFYIWGQGTMVTVSS
VL: EIVLTQSPGTLSLSPGERATLSCRASQSFNFNYLAWYQQKPGQAPRLLIYGASSRATGIPDRFSGSGSGTDFTLTINRLEPEDFGVFYCQQYESAPWTFGQGTKVEIK
notes: human IgG1 Fc form (H1H prefix) of numerical identifier 8323

target: T1, Human PD-L1 Dimer (human, UniProt Q9NZQ7 19-239); test: SPR (Biacore), mAb captured, 25C
T1 construct: also called hPD-L1 dimer; hPD-L1-hFc
Method: (§1) Binding association and dissociation rate constants (kₐ and kd, respectively), equilibrium dissociation constants and dissociation half-lives (KD and t_{1/2}, respectively) of antigen binding to purified anti-PD-L1 monoclonal antibodies were determined using a real-time surface plasmon resonance biosensor assay on a Biacore 4000 instrument. The Biacore sensor surface was either derivatized with polyclonal rabbit anti-mouse antibody (GE, #BR-1008-38) or with monoclonal mouse anti-human Fc antibody (GE, #BR-1008-39) to capture approximately 200-300 RUs of anti-PD-L1 monoclonal antibodies, expressed with either a mouse Fc or with human Fc, respectively. […] Different concentrations of PD-L1 reagents were injected over the anti-PD-L1 monoclonal antibody captured surface at a flow rate of 30 μL/min. The binding of the PD-L1 reagents to the captured monoclonal antibodies was monitored for 3 to 4 minutes while the dissociation of antibody bound PD-L1 reagents was monitored for 10 minutes in HBST running buffer (0.01 M HEPES pH 7.4, 0.15 M NaCl, 3 mM EDTA, 0.05% v/v Surfactant tween-20). Experiments were performed at either 25° C. or 37° C. Kinetic association (kₐ) and dissociation (kd) rate constants were determined by processing and fitting the data to a 1:1 binding model using Scrubber 2.0c curve fitting software. Binding dissociation equilibrium constants (KD) and dissociative half-lives (t_{1/2}) were then calculated from the kinetic rate constants as: KD (M)=kd/kₐ and t_{1/2} (min)=[In2/(60*kd)].

T1 sequence (Q9NZQ7 19-239): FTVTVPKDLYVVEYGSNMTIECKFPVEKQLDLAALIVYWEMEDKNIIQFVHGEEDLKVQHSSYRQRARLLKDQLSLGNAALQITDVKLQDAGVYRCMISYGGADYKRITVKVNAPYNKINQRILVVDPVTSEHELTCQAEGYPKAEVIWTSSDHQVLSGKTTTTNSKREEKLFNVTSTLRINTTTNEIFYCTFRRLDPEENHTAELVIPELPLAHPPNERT

Row | Binder | Kd [nM] | koff [s⁻¹] | kon [M⁻¹ s⁻¹] | t1/2 [min]
1 | B1 | 0.0437 | 0.000106 | 2.42e+06 | 109
2 | B2 | 0.689 | 0.000116 | 168000 | 100
3 | B3 | 0.0427 | 0.000217 | 5.07e+06 | 53
4 | B4 | 0.663 | 0.000148 | 223000 | 78
5 | B5 | 0.474 | 0.000237 | 500000 | 49
6 | B6 | 0.245 | 0.00019 | 776000 | 61

target: T2, recombinant cynomolgus monkey PD-L1 with a C-terminal myc-myc-hexahistidine tag (cynomolgus monkey (Macaca fascicularis)); test: SPR (Biacore), mAb captured, 25C
T2 construct: also called MfPD-L1-MMH; MfPD-L1-MMH Monomer
Method: as §1

T2 sequence (chain, as listed by the source limits assumed): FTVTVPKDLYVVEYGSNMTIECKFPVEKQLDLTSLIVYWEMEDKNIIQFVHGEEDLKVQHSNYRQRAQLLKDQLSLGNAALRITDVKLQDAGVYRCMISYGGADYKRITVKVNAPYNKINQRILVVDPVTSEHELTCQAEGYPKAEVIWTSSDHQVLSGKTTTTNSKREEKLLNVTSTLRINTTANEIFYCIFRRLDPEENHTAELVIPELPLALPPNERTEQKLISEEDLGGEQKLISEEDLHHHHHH

Row | Binder | Kd [nM] | koff [s⁻¹] | kon [M⁻¹ s⁻¹] | t1/2 [min]
7 | B1 | 0.412 | 0.000312 | 757000 | 37
8 | B2 | 6.64 | 0.000305 | 46000 | 38
9 | B3 | 25.5 | 0.0604 | 2.37e+06 | 0.2
10 | B4 | 157 | 0.0129 | 82200 | 0.9
11 | B5 | 77.3 | 0.0085 | 110000 | 1.4
12 | B6 | 12.2 | 0.00252 | 206000 | 4.6

target: T3, recombinant cynomolgus monkey PD-L1 with a C-terminal mouse IgG2a Fc tag (cynomolgus monkey (Macaca fascicularis)); test: SPR (Biacore), mAb captured, 25C
T3 construct: also called MfPD-L1-mFc; monkey PD-L1-mFc
Method: as §1

T3 sequence (chain, as listed by the source limits assumed): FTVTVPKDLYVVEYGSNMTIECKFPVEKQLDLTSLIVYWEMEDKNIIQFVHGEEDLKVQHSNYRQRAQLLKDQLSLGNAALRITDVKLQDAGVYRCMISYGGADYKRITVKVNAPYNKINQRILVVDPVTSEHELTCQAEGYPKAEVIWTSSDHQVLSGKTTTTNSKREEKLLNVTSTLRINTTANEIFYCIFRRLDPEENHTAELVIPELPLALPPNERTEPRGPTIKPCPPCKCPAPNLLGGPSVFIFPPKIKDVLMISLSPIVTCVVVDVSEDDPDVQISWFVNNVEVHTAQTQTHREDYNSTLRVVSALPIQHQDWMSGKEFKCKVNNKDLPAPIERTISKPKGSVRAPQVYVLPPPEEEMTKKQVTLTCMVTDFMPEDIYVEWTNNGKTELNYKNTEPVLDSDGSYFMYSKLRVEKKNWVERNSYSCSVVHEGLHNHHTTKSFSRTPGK

Row | Binder | Kd | koff | kon | t1/2
13 | B1 | 0.0587 nM and 0.0462 nM | 7.75e-05 s⁻¹ and 5.8e-05 s⁻¹ | 1.32e+06 M⁻¹ s⁻¹ and 1.25e+06 M⁻¹ s⁻¹ | 149 min and 199 min
14 | B2 | 0.447 nM | 9.14e-05 s⁻¹ | 205000 M⁻¹ s⁻¹ | 126 min
15 | B3 | 0.0452 nM and 0.073 nM | 0.000161 s⁻¹ and 0.000212 s⁻¹ | 3.55e+06 M⁻¹ s⁻¹ and 2.9e+06 M⁻¹ s⁻¹ | 72 min and 55 min
16 | B4 | 0.626 nM | 0.000133 s⁻¹ | 213000 M⁻¹ s⁻¹ | 87 min
17 | B5 | 0.512 nM | 0.000151 s⁻¹ | 296000 M⁻¹ s⁻¹ | 76 min
18 | B6 | 0.225 nM | 0.000188 s⁻¹ | 837000 M⁻¹ s⁻¹ | 61 min

target: T4, recombinant human PD-L1 (amino acids 19-239 of NP_054862.1) with a C-terminal myc-myc-hexahistidine tag (human); test: SPR (Biacore), mAb captured, 37C
T4 construct: also called hPD-L1-MMH; hPD-L1-MMH Monomer
Method: as §1

T4 sequence (chain, as listed by the source limits assumed): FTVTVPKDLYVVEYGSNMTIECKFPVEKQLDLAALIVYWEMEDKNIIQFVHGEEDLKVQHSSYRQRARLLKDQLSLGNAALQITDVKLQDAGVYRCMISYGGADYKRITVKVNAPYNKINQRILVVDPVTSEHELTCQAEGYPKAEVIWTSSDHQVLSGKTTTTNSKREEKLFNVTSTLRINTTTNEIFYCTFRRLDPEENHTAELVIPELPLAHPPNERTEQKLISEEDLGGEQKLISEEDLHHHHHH

Row | Binder | Kd [nM] | koff [s⁻¹] | kon [M⁻¹ s⁻¹] | t1/2 [min]
19 | B1 | 0.417 | 0.000563 | 1.35e+06 | 21
20 | B2 | 15.4 | 0.00114 | 73900 | 10
21 | B3 | 39.1 | 0.137 | 3.49e+06 | 0.08
22 | B4 | 107 | 0.0107 | 99700 | 1.1
23 | B5 | 197 | 0.034 | 172000 | 0.3
24 | B6 | 33 | 0.0113 | 344000 | 1

target: T1, Human PD-L1 Dimer; test: SPR (Biacore), mAb captured, 37C
Method: as §1

Row | Binder | Kd [nM] | koff [s⁻¹] | kon [M⁻¹ s⁻¹] | t1/2 [min]
25 | B1 | 0.0208 | 6.96e-05 | 3.34e+06 | 166
26 | B2 | 0.317 | 0.000145 | 456000 | 80
27 | B3 | 0.0639 | 0.000392 | 6.12e+06 | 29
28 | B4 | 0.278 | 0.000137 | 492000 | 84
29 | B5 | 0.297 | 0.000203 | 682000 | 57
30 | B6 | 0.237 | 0.000258 | 1.09e+06 | 45

target: T5, recombinant cynomolgus monkey PD-L1 expressed with a C-terminal mouse IgG2a Fc tag (cynomolgus monkey); test: SPR (Biacore), mAb captured, 37C
T5 construct: also called MfPD-L1-mFc; monkey PD-L1-mFc
Method: as §1

Row | Binder | Kd [nM] | koff [s⁻¹] | kon [M⁻¹ s⁻¹] | t1/2 [min]
31 | B7 | 0.0333 | 9.6e-05 | 2.89e+06 | 120
32 | B8 | 0.0451 | 0.000135 | 2.99e+06 | 86

target: T2, recombinant cynomolgus monkey PD-L1 …; test: SPR (Biacore), mAb captured, 37C
Method: as §1

Row | Binder | Kd [nM] | koff [s⁻¹] | kon [M⁻¹ s⁻¹] | t1/2 [min]
33 | B1 | 0.566 | 0.000633 | 1.12e+06 | 18
34 | B2 | 9.82 | 0.000844 | 85900 | 14
35 | B3 | 48.9 | 0.157 | 3.2e+06 | 0.07
36 | B4 | 189 | 0.0245 | 130000 | 0.5
37 | B5 | 121 | 0.0197 | 164000 | 0.6
38 | B6 | 30.5 | 0.012 | 394000 | 1

target: full length human PD-L1 (amino acids 1 to 290 of NP_054862.1) on transfected cells (human, UniProt Q9NZQ7 19-290); test: cell-based or functional assay
Sequence (Q9NZQ7 19-290 limits assumed): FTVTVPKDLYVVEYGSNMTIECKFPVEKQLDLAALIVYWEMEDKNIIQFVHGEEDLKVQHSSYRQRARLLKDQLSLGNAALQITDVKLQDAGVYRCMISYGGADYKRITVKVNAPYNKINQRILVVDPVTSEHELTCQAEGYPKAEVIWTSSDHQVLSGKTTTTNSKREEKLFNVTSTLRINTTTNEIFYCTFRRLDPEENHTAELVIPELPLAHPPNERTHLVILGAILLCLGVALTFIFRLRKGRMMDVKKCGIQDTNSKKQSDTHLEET

Row | Binder | Concentration [M] of Antibody at 125% activation [M] | Emax mean [%] @ 100 nM [%]
39 | B7 | 6.57e-11 | 148
